Reference: PMC4790635, “A critical role of mevalonate for peptidoglycan synthesis in Staphylococcus aureus” (Scientific Reports, 2016)

Biological target: the molecule itself
Test: SEC; gel filtration analysis of S. aureus MvaA protein; conditions not told in the text (Supplementary Fig. 9)

B1: S. aureus MvaA protein (HMG-CoA reductase), His-tag fused recombinant wild-type (enzyme, Staphylococcus aureus (strain RN4220), UniProt Q9FD86 1-425, looked up)
chain: MQSLDKNFRHLSRQQKLQQLVDKQWLSEDQFDILLNHPLIDEEVANSLIENVIAQGALPVGLLPNIIVDDKAYVVPMMVEEPSVVAAASYGAKLVNQTGGFKTVSSERIMIGQIVFDGVDDTEKLSADIKALEKQIHKIADEAYPSIKARGGGYQRIAIDTFPEQQLLSLKVFVDTKDAMGANMLNTILEAITAFLKNESPQSDILMSILSNHATASVVKVQGEIDVKDLARGERTGEEVAKRMERASVLAQVDIHRAATHNKGVMNGIHAVVLATGNDTRGAEASAHAYASRDGQYRGIATWRYDQKRQRLIGTIEVPMTLAIVGGGTKVLPIAKASLELLNVDSAQELGHVVAAVGLAQNFAACRALVSEGIQQGHMSLQYKSLAIVVGAKGDEIAQVAEALKQEPRANTQVAERILQEIRQQ
notes: MvaA protein (HMG-CoA reductase) of Staphylococcus aureus RN4220; mvaA gene amplified by PCR from chromosomal DNA with primers FmvaA-His and RmvaA-His and ligated into pET28a in-frame with the N-terminal histidine tag; also called SaMvaA; WT MvaA; source: E. coli BL21(DE3)pLysS, purified (nickel-chelating resin, dialysis)
- stoichiometry N: 2
